From US20030186920A1

B1: human placenta growth factor, PlGF152 (R & D Systems) (ligand, UniProt P49763-3 19-170, looked up)
chain: LPAVPPQQWALSAGNGSSEVEVVPFQEVWGRSYCRALERLVDVVSEYPSEVEHMFSPSCVSLLRCTGCCGDENLHCVPVETANVTMQLLKIRSGDRPSYVELTFSQHVRCECRPLREKMKPERRRPKGRGKRRREKQRPTDCHLCGDAVPRR

Experiments:
Test in all cases: cell-based or functional assay
[1] = target: bovine Flk-1 (VEGFR-2), endogenous on bovine aortic endothelial cells (BAEC) (bovine)
[2] = target: T1, bovine Flt-1 (VEGFR-1), endogenous on bovine aortic endothelial cells (BAEC) (bovine)
T1 sequence: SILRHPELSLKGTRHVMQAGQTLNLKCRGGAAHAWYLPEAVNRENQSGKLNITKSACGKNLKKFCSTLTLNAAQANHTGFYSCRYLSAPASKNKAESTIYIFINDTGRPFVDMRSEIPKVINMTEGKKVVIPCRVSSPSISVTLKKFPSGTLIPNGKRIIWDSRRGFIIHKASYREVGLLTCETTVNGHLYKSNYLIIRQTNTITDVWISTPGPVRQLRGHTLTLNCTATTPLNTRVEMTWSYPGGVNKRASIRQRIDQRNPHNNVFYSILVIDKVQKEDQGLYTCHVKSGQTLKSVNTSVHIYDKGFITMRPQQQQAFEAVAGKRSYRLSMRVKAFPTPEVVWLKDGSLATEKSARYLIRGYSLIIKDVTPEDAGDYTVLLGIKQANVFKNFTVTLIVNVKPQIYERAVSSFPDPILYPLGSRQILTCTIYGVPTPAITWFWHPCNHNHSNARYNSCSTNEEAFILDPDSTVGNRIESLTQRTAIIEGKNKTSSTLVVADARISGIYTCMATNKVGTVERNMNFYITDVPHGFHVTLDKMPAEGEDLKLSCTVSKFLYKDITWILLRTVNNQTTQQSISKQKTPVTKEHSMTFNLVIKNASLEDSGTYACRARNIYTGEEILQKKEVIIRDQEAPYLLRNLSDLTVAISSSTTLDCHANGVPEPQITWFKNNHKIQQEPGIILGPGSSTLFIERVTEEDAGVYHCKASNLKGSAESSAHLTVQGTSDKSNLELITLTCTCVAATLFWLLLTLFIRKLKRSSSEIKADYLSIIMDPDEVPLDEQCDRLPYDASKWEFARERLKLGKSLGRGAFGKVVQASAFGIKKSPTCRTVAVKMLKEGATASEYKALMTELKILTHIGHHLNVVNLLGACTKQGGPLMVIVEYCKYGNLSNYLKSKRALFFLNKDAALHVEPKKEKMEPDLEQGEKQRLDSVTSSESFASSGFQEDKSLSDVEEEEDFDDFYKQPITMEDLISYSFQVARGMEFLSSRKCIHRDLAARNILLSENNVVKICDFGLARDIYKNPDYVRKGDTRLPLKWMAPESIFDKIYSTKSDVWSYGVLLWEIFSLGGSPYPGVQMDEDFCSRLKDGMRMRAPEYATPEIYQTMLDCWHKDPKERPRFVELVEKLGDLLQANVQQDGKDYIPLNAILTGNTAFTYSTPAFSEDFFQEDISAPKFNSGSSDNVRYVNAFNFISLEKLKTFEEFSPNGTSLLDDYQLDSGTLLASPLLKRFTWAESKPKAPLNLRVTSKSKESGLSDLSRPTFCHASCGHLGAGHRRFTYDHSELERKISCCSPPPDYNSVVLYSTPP

[3] = target: T1, bovine Flt-1 (VEGFR-1), endogenous on bovine aortic endothelial cells (BAEC) (bovine); remark: listed apart in the source

BAEC migration (modified Boyden chamber, 5 h), VEGF 2.5x10^-10 M (% increase over PBS-stimulated cells) [1]	BAEC migration (modified Boyden chamber, 5 h), VEGF 10^-9 M (% increase over PBS-stimulated cells) [1]	BAEC migration (modified Boyden chamber, 5 h), VEGF 10^-10 M (% increase over PBS-stimulated cells) [1]	BAEC proliferation (cell count at 72 h), VEGF 2.5x10^-10 M (% increase over DMEM/1% FBS) [1]	BAEC proliferation (cell count at 72 h), VEGF 10^-10 M (% increase over DMEM/1% FBS) [1]	BAEC proliferation (cell count at 72 h), VEGF 10^-11 M (% increase over DMEM/1% FBS) [1]	Flk-1 phosphorylation in BAEC stimulated with VEGF (10^-9 M), anti-phosphotyrosine Western blot of immunoprecipitated receptor (fold over PBS-treated cells) [1]	PAF synthesis by BAEC (3H-acetate incorporation, 15 min), VEGF 10^-8 M (fold over PBS-treated cells) [1]	PAF synthesis by BAEC (3H-acetate incorporation, 15 min), VEGF 10^-9 M (fold over PBS-treated cells) [1]	PAF synthesis by BAEC (3H-acetate incorporation, 15 min), VEGF 10^-10 M (fold over PBS-treated cells) [1]	Flt-1 phosphorylation in BAEC stimulated with VEGF (10^-9 M), anti-phosphotyrosine Western blot of immunoprecipitated receptor (fold over PBS-treated cells) [2]	PAF synthesis by BAEC (3H-acetate incorporation, 15 min), PlGF 10^-8 M (% increase over PBS-treated cells) [3]	Molecule
83	130	46	219	183	62	13.2	35.9	20.4	7.2	1.5	–	human recombinant vascular growth factor, VEGF165 (PeproTech Inc.) (from UniProt P15692 27-191) (ligand)
–	–	–	–	–	–	–	–	–	–	–	67	B1
